Where two headings read alike, the source gives them in different places.
Legend:
[1] = system: α subunit of a human calcium sensitive potassium channel (human Slowpoke α); experiment: Electrophysiological analysis of β subunits co-expressed with the α subunit in Xenopus oocytes, inside-out patches; assay type: cell-based; conditions: for inactivation of calcium sensitive potassium currents: co-expressed with the α subunit; for V1/2 (half-maximal activation, Boltzmann fit to normalized conductances) / changes in the kinetics and voltage dependence of the channels formed by α subunits: inside-out patches, internal Ca2+ 30 μM; for V1/2 (half-maximal activation, Boltzmann fit to normalized conductances): α and β cRNAs 1:10 (β in excess), α subunit alone 20 mV; for shift of the voltage dependence compared to channels containing only α subunits: micromolar intracellular Ca2+; for changes in the kinetics and voltage dependence of the channels formed by α subunits: α and β cRNAs 1:10
Protocol: The voltage clamp protocol consisted of a pre-pulse to −160 mV (200 ms), followed by 20 mV depolarizing steps from −80 to +80 mV (500 ms); holding potential was −80 mV; internal Ca^2+ was 30 μM. […] FIG. 7B: Boltzmann equations were fit to normalized conductances for the records shown in 7A, which were calculated from peak currents and plotted as function of test potential. V1/2 values are: 20 mV (α subunit alone); −55 mV (α+β2 subunit); 45.36 mV (α+β3α subunit); 20 mV (α+β3c subunit). […] Inactivation rates and fractional inactivating current were calculated as described in Example 2.
The β2, β3a, β3b, β3c, and β3d subunits of the human calcium sensitive potassium channel have been expressed in Xenopus oocytes, both by themselves and in combination with an α subunit of a large-conductance calcium-sensitive potassium channel (maxi-K channel). […] The rates of inactivation produced by β2, β3a and β3c are dependent upon voltage and internal calcium concentration; inactivation time constants reach a maximum at high depolarizations and high micromolar calcium for β2, β3a and β3c, τinact ˜30-40 ms at 80 mV with 30 μM intracellular Ca^2+. […] (McManus et al., 1995, Neuron 14:645-650).
Electrophysiological analysis: cRNAs were synthesized in vitro from plasmids encoding human Slowpoke α or the β2, β3a, β3b, β3c, or β3d subunits and injected into Xenopus oocytes (1.5 ng/oocyte of α subunit RNA +/−β subunit RNA at 1, 5, or 10× molar excess). Calcium sensitive potassium currents were recorded in inside-out patches. Recordings were performed under ionic conditions of symmetrical potassium. The standard pipette and bath solutions contained 116 mM potassium gluconate, 4 mM potassium chloride, 10 mM HEPES, pH 7.2. CaCl2 was added to the bath solution to give final concentrations of free ionized calcium of 3-30 μM, taking into account the stability constant for calcium gluconate (15.9 M^−1). Currents were recorded using an EPC-7 amplifier (HEKA). The pClamp6.0 program (Axon Instruments) was used to generate voltage-clamp commands for data acquisition, and for analysis. NPO-voltage relations were determined at 3, 10 and 30 μM bath calcium using two methods: (1) calculation of macroscopic conductance from peak or steady-state currents at test potentials (−80 to 80 mV), or (2) measurement or calculation of tail currents peaks (−80 mV) at test potentials. Boltzmann functions were fit to the data and used to derive the half-maximal activation parameter (V1/2). Maximal inactivation parameters (30 μM Ca^2+ and 80 mV) were calculated from current traces or averaged current traces. Inactivation rates were determined from single exponential fits. Fractional non-inactivating current was calculated as steady-state/peak current; fractional inactivating current was estimated as peak current minus steady-state current divided by peak current.

[2] = system: α subunit of a human calcium sensitive potassium channel (human Slowpoke α); conditions: previously described (McManus et al., 1995); cited from earlier work

| Molecule | inactivation of calcium sensitive potassium currents [1] | V1/2 (half-maximal activation, Boltzmann fit to normalized conductances) [1] [mV] | shift of the voltage dependence compared to channels containing only α subunits [1] | changes in the kinetics and voltage dependence of the channels formed by α subunits [1] | inactivation of calcium sensitive potassium currents [2] | shift in the voltage dependence of activation ([1]; towards negative potentials, with 30 μM Ca2+ in the bath) [mV] |
| --- | --- | --- | --- | --- | --- | --- |
| β3c: β3c subunit of human calcium sensitive potassium channel, amino acid sequence SEQ. ID. NO.:8 (protein) MFPLLYELTAVSPSPFPQRTAFPASGKKRETDYSDGDPLDVHKRLPSSTGEDRAVMLGFAMMGFSVLMFFLLGTTILKPFMLSIQREESTCTAIHTDIMDDWLDCAFTCGVHCHGQGKYPCLQVFVNLSHPGQKALLHYNEEAVQINPKCFYTPKCHQDRSDLLNSALDIKEFFDHKNGTPFSCFYSPASQSEDVILIKKYDQMAIFHCLFWPSLTLLGGALIVGMVRLTQHLSLLCEKYSTVVRDEVGGKVPYIEQHQFKLCIMRRSKGRAEKS | induce inactivation | 20 | do not shift the voltage dependence | – | – | – |
| β3b: β3b subunit of human calcium sensitive potassium channel, amino acid sequence SEQ. ID. NO.:6 (protein, listed as Homo Sapiens) MTAFPASGKKRETDYSDGDPLDVHKRLPSSTGEDRAVMLGFAMMGFSVLMFFLLGTTILKPFMLSIQREESTCTAIHTDIMDDWLDCAFTCGVHCHGQGKYPCLQVFVNLSHPGQKALLHYNEEAVQINPKCFYTPKCHQDRNDLLNSALDIKEFFDHKNGTPFSCFYSPASQSEDVILIKKYDQMAIFHCLFWPSLTLLGGALIVGMVRLTQHLSLLCEKYSTVVRDEVGGKVPYIEQHQFKLCIMRRSKGRAEKS | – | – | do not shift the voltage dependence | did not induce noticeable changes | – | – |
| β3d: β3d subunit of human calcium sensitive potassium channel, amino acid sequence SEQ. ID. NO.:10 (protein) MDFSPSSELGFHFVAFILLTRHRTAFPASGKKRETDYSDGDPLDVHKRLPSSTGEDRAVMLGFAMMGFSVLMFFLLGTTILKPFMLSIQREESTCTAIHTDIMDDWLDCAFTCGVHCHGQGKYPCLQVFVNLSHPGQKALLHYNEEAVQINPKCFYTPKCHQDRNDLLNSALDIKEFFDHKNGTPFSCFYSPASQSEDVILIKKYDQMAIFHCLFWPSLTLLGGALIVGMVRLTQHLSLLCEKYSTVVRDEVGGKVPYIEQHQFKLCIMRRSKGRAEKS | – | – | do not shift the voltage dependence | did not induce noticeable changes | – | – |
| β1: previously known human calcium sensitive potassium channel β1 subunit, SEQ. ID. NO.:11, GenBank U25138 (protein) MVKKLVMAQKRGETRALCLGVTMVVCAVITYYILVTTVLPLYQKSVWTQESKCHLIETNIRDQEELKGKKVPQYPCLWVNVSAAGRWAVLYHTEDTRDQNQQCSYIPGSVDNYQTARADVEKVRAKFQEQQVFYCFSAPRGNETSVLFQRLYGPQALLFSLFWPTFLLTGGLLIIAMVKSNQYLSILAAQK | – | – | – | – | do not induce inactivation | – |
| β2: β2 subunit of human calcium sensitive potassium channel, amino acid sequence SEQ. ID. NO.:2 (protein, listed as Homo Sapiens) MFIWTSGRTSSSYRHDEKRNIYQKIRDHDLLDKRKTVTALKAGEDRAILLGLAMMVCSIMMYFLLGITLLRSYMQSVWTEESQCTLLNASITETFNCSFSCGPDCWKLSQYPCLQVYVNLTSSGEKLLLYHTEETIKINQKCSYIPKCGKNFEESMSLVNVVMENFRKYQHFSCYSDPEGNQKSVILTKLYSSNVLFHSLFWPTCMMAGGVAIVAMVKLTQYLSLLCERIQRINR | induce inactivation | −55 | – | – | – | ~80 |
| β3a: β3a subunit of human calcium sensitive potassium channel, amino acid sequence SEQ. ID. NO.:4 (protein, listed as Homo Sapiens) MQPFSIPVQITLQGSRRRQGRTAFPASGKKRETDYSDGDPLDVHKRLPSSTGEDRAVMLGFAMMGFSVLMFFLLGTTILKPFMLSIQREESTCTAIHTDIMDDWLDCAFTCGVHCHGQGKYPCLQVFVNLSHPGQKALLHYNEEAVQINPKCFYTPKCHQDRSDLLNSALDIKEFFDHKNGTPFSCFYSPASQSEDVILIKKYDQMAIFHCLFWPSLTLLGGALIVGMVRLTQHLSLLCEKYSTVVRDEVGGKVPYIEQHQFKLCIMRRSKGRAEKS | induce inactivation | 45.36 | do not shift the voltage dependence | – | – | – |

Reference: US20090117590A1, “Human calcium sensitive potassium channel beta3 subunit proteins, encoding nucleic acid and uses thereof” (priority 1999, published 2009)
